In a protein production outcome set (Wang et al. 2014):

Experiment: label from the status in PepcDB records

Q: Which protein production does the source give for “LNTAPIFMPNTVGGYFPGPRTFPGNKKILYNSSTMVKALSRGYVVVSAGLRGRTLTNEKGEFIGKAPAFIIDMKAAIRYIKFNKDNFPGDVNKIITNGTSAGGAISALIGASGNNVFFEKELDEIGAADSSDNIFAVSAYCPIHNLENADAAYEWQFNGINDWHTQKIDIKNGKAEFSPLNGQLNELEKQLSSKLKNQFIEYLNSLRLRNPDGDYLTLNKIGEGNFLDLTKKFLIKSAQTEIEKGNELNNPNFLDIRNGKVVSLKWKAYLRYITRMKKVPAFDDLGLNNPENDLFGDIKIKAKHFTEIGQKYSEKTAKKADPELVTAINPLNYLNNQSNSLIAKHWRIRHGAADRDTSFAVPIILATTLQNMNLDIDFFMPWAKPHSGDYDLIDLFDWIDSLVKEK” here?
A: failed

Q: With “MTIPNQIEVRGGRVHNLKNIDVDIPLNKFVAISGLSGSGKSSLAMGILYEEGSRRYLDALSTYMRRRIKQGSQVDVTSVKHIPSALALRQRPSVPNERATVGTMSETFNILRLIFSRLGSPVCPNGHRLKPSLKIAESMSLSGEKMGQLTCPVCGENFYAPSAEQFAFNSEGACIECGGTGKVRQLDEDKLIADENLSIKEGAVASWSLPGRNFMPNVAEYAGVRIDIPYKDLTAKEKDFVLNGPEKKYKMDFLSGTGRVFHDFNVLYENAHQAVYRSAQTSKSERAQKRIAEFFTYSICPVCHGSRLKPELLKQWVGNSNINQVSQKQLGELPTWADQIQAELPANMHKMAHALFAEFLDNLQPLLDLGLDYLTMARNGNTLSTGELQRIQLARTLRTETTGVLYVLDEPSIGLHPANVAGLIKVLRKLVNQGNSLVVVDHNVDIIAAADEVIEIGPGSGEKGGQILDHGPISTIKNDQQSLIRPYLDGSAQLLARKIANQINNDGISFEVKNYFNLKDIKANIPLNQLTAVTGFSGAGKTSLILDSLVPAIKAESKNEKLPKQIINFSAPVSNVVGVDASPIGKSTRSTVATYTSIMNNLRRLFASQPLAKEKHFTPTYFSYNNKQGACPTCGGTGIVTLDIQFLPDMQQVCPTCHGDRYNQKVQQVKWQGMSIVDILNLDIEGALPLFKRVPKIERELKLLKEVGLDYLHLGESTPTLSGGEAQRLKLVTHLSHKQSDTLFVFDEPTIGLHPLDVKTLVKVMQKLLDQGATLITITHDLNLIANCDYIIDLGPQGGNNGGQIVASGRVMDLIKDPHSLTTQYLAVYCENLICLKIIIDLLA” as the sequence, how does the protein production read?
A: failed

Q: With “MPDLGLTDAESLGHCLFDTGFGVCGIAWRAFEGKDEAPVVTLFLLPEATAAGTAAAMARRCGGSPTVPPPAIAEVIEKVRRHFRGDLQDFSRVRVEPDGAGPFARAVYSAARDVPAGQIRTYGELARALNRPAAARAVGQALGRNPVPLIIPCHRILGAGGKLGGFSAHGGVATKARMLRLEGVAV” as the sequence, how does the protein production read?
A: failed

Q: Which protein production does the source give for “MVMARNRNSNQLASHGAQAALDQMKYEIAQEFGVQLGADTSSRANGSVGGEITKRLVAMAEQQLGGGYTRLEHHHHHH” here?
A: not failed

Q: With “MMLAVEDVLSELAGEERNERGLPPGFRFHPTDEELITFYLASKIFHGGLSGIHISEVDLNRCEPWELPEMAKMGEREWYFYSLRDRKYPTGLRTNRATTAGYWKATGKDKEVFSGGGGQLVGMKKTLVFYKGRAPRGLKTKWVMHEYRLENDHSHRHTCKEEWVICRVFNKTGDRKNVGLIHNQISYLHNHSLSTTHHHHHEALPLLIEPSNKTLTNFPSLLYDDPHQNYNNNNFLHGSSGHNIDELKALINPVVSQLNGIIFPSGNNNNDEDDFDFNLGVKTEQSSNGNEIDVRDYLENPLFQEASYGLLGFSSSPGPLHMLLDSPCPLGFQL” as the sequence, how does the protein production read?
A: failed

Q: Which protein production does the source give for “MEGALAANWSAEAANASAAPPGAEGNRTAGPPRRNEALARVEVAVLCLILLLALSGNACVLLALRTTRQKHSRLFFFMKHLSIADLVVAVFQVLPQLLWDITFRFYGPDLLCRLVKYLQVVGMFASTYLLLLMSLDRCLAICQPLRSLRRRTDRLAVLATWLGCLVASAPQVHIFSLREVADGVFDCWAVFIQPWGPKAYITWITLAVYIVPVIVLATCYGLISFKIWQNLRLKTAAAAAAEAPEGAAAGDGGRVALARVSSVKLISKAKIRTVKMTFIIVLAFIVCWTPFFFVQMWSVWDANAPKEASAFIIVMLLASLNSCCNPWIYMLFTGHLFHELVQRFLCCSASYLKGRRLGETSASKKSNSSSFVLSHRSSSQRSCSQPSTA” here?
A: not failed

Q: Which protein production does the source give for “MKFLKYFTFELRLRYRNPSQILFVFIFPLFLMFAFSSSFGKSIPHYIENNIASILLYSVLSASLTSLSVQIADHQSGKIYQLFVQRGIKKLFYIIAQIVSFMIIIFCSTLVILVVAHYAYDYEFPKLSLLILFYLKLYLYSIPFCLLAMIIGLLAKNTATASAIAMPLMFLSFFFSGMMIPLAQLSGGIRKIADNFFLTQLLSDLNHTLTSNYTVVPNWSRISLSVGLICLLALLVYRRKA” here?
A: failed

Q: With “MRRTLVVPDVLLLGTLLAGLLLLSGCEGDYRPRAVGPIGEITVVMDSSHWTGPSGEALRANVTPWVETLPVSERSFQLRHLELTDERTYERVQDLKNVIIAAPLSDSTNETSFLRRRLSDEAEQAILDGQTAVVPKPNLWRRSQRIYYVAAASPDALAETFQSQGTQIRDTFTEATLQRMDRNMYEDDRRSALEDTLMQRHGFAVNMQSDFQIAVDTTTGSEGFVWLRRLLAQTRREFFVYYVEDVSPDQITPEWIYNTRDSLTRRHLRGNVRGFAKIDYRRPLKTEQRSFLDRYAYDSRGLWYMVAPLGGGNELRPVGGGGPFVNYTFYDQATDRVYMLDGSIFAPDNDKIDLLRQMEVMARTFRTAEGSRSPDASPTAAKLEHHHHHH” as the sequence, how does the protein production read?
A: failed

Q: Which protein production does the source give for “MKKILCAVLLLFTGASWANSDDLETSGDVVHLLLPATALGATLFYEEGHEGSWQLLKAAVSSRVIVEGLKLGVNKDRPDGSGDDSFPSGHTSDSFMAATFIQQRYGWQYGLPAYLAASYVGYTRVESDKHYVEDVLAGAAIGMLAGWYFTEPYKGITVTPLAHNGVYGLYISGQF” here?
A: failed

Q: Which protein production does the source give for “MVTPAQVARRAALWMLTSTVAFGLMAITIRLASSTIATAEIAFFRNAFGLLALLPLILRPGKPLPRTRQLPQYFARTLIGLASMLCGFWAIGHLPLSQAISLSYSTPLFVTVLAVVWLHEQVRLRRWLAVAAGFIGVLVILRPGSSTFTPGLLIALLAAVISAIVAIQIKQLSRSDDSDTVVFYTYVFWVPMSLIPALFQWTWPQGIGWVWLVATGIFGTAGQLFWTRALKLGEVSALQPISFMQLPLVALLGWWLFGEAIERHTVIGAAIIIGANVYIAHRETVLARRAATHAPVEGAKPGE” here?
A: failed

Q: For “MKLTKGKVLLAGCMAMAMSHSVLAQDIKVAIVGAMSGPVAQYGDMQFTGARQAIADINASGGIKGDKLVGVEYDDACDPKQAVAVANKVINDGIRYVIGHLCSSSTQPASDIYEDEGVIMITPAATNADLTTRGYKMIMRTTGLDSDQGPTAAKYIVETIKPKRIAVVHDKQQYGEGLARSVRDSLKEQGAEVVLFEGVTAGDKDFSTLVARLKKENVDFVYFGGYYPEMGQILRQAKQAGLTARFMGPEGVGNSSLSNIAGEASEGMLVTLPKRYDQVPANQPIVDALKAKKLDPTGPFVWTTYAALQSLTTAMERTGSKEPADLANDLKTGKPVETVMGPLSWDDKGDLKGFEFGIFEWHADGSSTAVK”, which protein production is on record?
A: failed

Q: With “MMKLLHLFMDEITMDPLHAVYLTVGLFVITFFNPGANLFVVVQTSLASGRRAGVLTGLGVALGDAFYSGLGLFGLATLITQCGEIFSLIRIVGGAYLLWFAWCSSMRRHSTPQMSTLQQPISAPWYVFFRRGLITDLSNPQTVLFFISIFSVTLHAETPTWARLMAWAGIVLASIIWRVFLSQAFSLPAVRRAYGRMQRVASWVIGAIIGVFALRLIYEGVTQR” as the sequence, how does the protein production read?
A: failed

Q: For “DQPLAVAGDELAIADQTIDALSAQVEKLRHQQDLSLKQAELLTELSRANLSDIDEIQGVIQKNLDQARALFGCERLVFYYHPRYQPEAMVVQALDLTTQGLIDSKDPHPWGQEDMPSQIVAINDTSGASISNPHRQWLEQHQVKASLTVPLHRDNYPLGLLMAHHCQRPHQWEMRERQFLQQLTEELQTTLDRANLIQERNESAQQAQILKELTLKISAAIN”, which protein production is on record?
A: failed

Q: Which protein production does the source give for “MSPIVSVPDITAPVENVPAILPKVVPGELIVNKPTGGDSDELFQYLVDILASPVYDVAIESPLELAEKLSDRLGVNFYIKREDKQRVFSFKLRGAYNMMSNLSREELDKGVITASAGNHAQGVALAGQRLNCVAKIVMPTTTPQIKIDAVRALGGDVVLYGKTFDEAQTHALELSEKDGLKYIPPFDDPGVIKGQGTIGTEINRQLKDIHAVFIPVGGGGLIAGVATFFKQIAPNTKIIGVEPYGAASMTLSLHEGHRVKLSNVDTFADGVAVALVGEYTFAKCQELIDGMVLVANDGISAAIKDVYDEGRNILETSGAVAIAGAAAYCEFYKIKNENIVAIASGANMDFSKLHKVTELAGLGSGK” here?
A: not failed

Q: With “MVTAGKTLGKRMSTMRHRSCFSLFAGLALVFCLAVGTAAAGPVQVDIYGPGQGSLNLAMAAPLGPTPGTPVSGMGVKLNGFINENLSFLPFLRLVDQRAILGGTVMQGYKSPDIDLKRFQLAGADLVVTAGWPQGDASGSFVELRVYEALSGKLVFGKAYSHVEDGLLPNVADRFCSDLMKALTGRGEFFKSTLAFVKHDGKNKRDVWLVKPVGRDLRKITNLPGEALSPSWSPDGRFVVFSHFDDRSHALGVWDRLTRQVQRIRFPGNTVIGPCFLPDNKVAVSLSSGRNPDIFLLNHLFKKERELEANPSINVSPSFDATGTKMAFTSSRMGGPQVFMKDMTTGQVTRISKTGSYNTEPSISPDGTLVAFTKMTDTGHRIFVYDMVTQSERQVSFGPGRDEQPSFAPDSYFLAFTSNRNGAQQIFLVTRHGGDPKRVPTGPGDASFARWGMIPE” as the sequence, how does the protein production read?
A: failed

Q: For “MAAPGGRGRSLSGLLPAQTSLEYALLDAVTQQEKDSLVYQYLQKVDGWEQDLSVPEFPEGLEWLNTEEPISVYKDLCGKIVVLDFFTYCCINCIHLLPDLHALEHTYSDKDGLLIIGVHSAKFPNEKVLDNIKSAVLRYNITHPMVNDADASLWQELEVSCWPTLVILGPRGNMLFSLIGEGHKDKLFLYTSIALKYYKDRGQIRDNKIGIKLYKDSLPPSPLLFPGKVTVDQVTDRLVIADTGHHRILVVWKNGQIQYSIGGPNPGRKDGIFSESTFNSPQGVAIMNNIIYVADTENHLIRKIDLEAEKVSTVAGIGIQGTDKEGGAKGEQQPISSPWDVVFGTSGSEVQRGDILWIAMAGTHQIWALLLDSGKLPKKNELTKGTCLRFAGSGNEENRNNAYPHKAGFAQPSGLSLASEDPWSCLFVADSESSTVRTVSLKDGAVKHLVGGERDPMNLFAFGDVDGVGINAKLQHPLGVTWDKKRNLLYVADSYNHKIKVVDPKTKNCTTLAGTGDTNNVTSSSFTESTFNEPGGLCIGENGELLYVADTNNHQIKVMDLETKMVSVLPIFRSENAVVDGPFLVEKQKTLPKLPKSAPSIRLSPVTACAGQTLQFKLRLDLPSGSKLTEGVSSCWFLTAEGNEWLLQGQIAAGDIENISSQPTISLQIPDDCLSLEAIVSVSVFLYYCSADSSACMMKAILFSQPLQITDTQQGCIAPVELRYVF”, which protein production is on record?
A: failed

Q: With “MTQQLFTLFAVFISLFLFGMAVMRAGLLTMNAEKARVGILRFVDNPLKGFFVGLLLTILLQSSSAVMIVTIGFVAAGYVTFRQSIGIILGTNVGTCFTVELIALDLHSLIVPLLLIGLIGLAIPHLITYCLGCVSFGLACIFISMNGLENLASPLAAIPAIQAFIELTNDWLIVGAGVGTLLTALIQSSTATTAIAMGFLNEEIIGIHGGIAIMLGANIGTCFTALLASIGSGRTSRLVAFAHLWLNVIGVLLFIPLIPHLSHFVMTLTTIPAIQLAHASTIFNVICSLAILPFVKPFASFIETLHGPSQ” as the sequence, how does the protein production read?
A: failed

Q: With “MGKDGLSDDQVSSMKEAFMLFDTDGDGKIAPSELGILMRSLGGNPTQAQLKSIIASENLSSPFDFNRFLDLMAKHLKTEPFDRQLRDAFKVLDKEGTGFVAVADLRHILTSIGEKLEPNEFDEWIKEVDVGSDGKIRYEDFIARMVAK” as the sequence, how does the protein production read?
A: failed
